Legend:
[1] = biological target: soluble human IL-5R α (shIL-5R α) (human) (UniProt Q01344); experiment: discussion of the ELISA results; assay not given
[2] = biological target: soluble human IL-5R α (shIL-5R α) (human) (UniProt Q01344); experiment: ELISA method 2: purified antibody on plate-coated shIL-5R α, anti-human IgG detection

soluble human IL-5R α (shIL-5R α) (human), sequence (Q01344 other isoform, or with tags, fused parts or gaps limits assumed, form in doubt): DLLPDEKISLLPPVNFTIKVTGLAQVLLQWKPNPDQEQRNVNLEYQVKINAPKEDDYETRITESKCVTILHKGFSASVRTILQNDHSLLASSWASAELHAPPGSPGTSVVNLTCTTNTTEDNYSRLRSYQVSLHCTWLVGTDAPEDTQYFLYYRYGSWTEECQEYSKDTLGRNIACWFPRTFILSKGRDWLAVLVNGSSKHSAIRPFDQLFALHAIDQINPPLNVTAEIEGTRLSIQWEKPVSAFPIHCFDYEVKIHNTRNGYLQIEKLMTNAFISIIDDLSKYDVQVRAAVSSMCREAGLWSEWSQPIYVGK

- activity relative to KM1259 (fold of KM1259) [1]: 0.5
- reactivity relative to KM1399 (fold of KM1399) [2]: 0.5
B1: anti-human IL-5R α chain human CDR-grafted antibody KM8397 (antibody, human IgG1, V domains shown)
VH: EVQLVQSGAEVKKPGASVKVSCKASGYTFTSYVIHWVRQAPGQGLEWMGYINPYNDGTKYNERFKGRVTITADTSTSTAYMELSSLRSEDTAVYYCAREGIRYYGLLGDYWGQGTLVTVSS
VL: DIQMTQSPSSLSASVGDRVTITCGTSEDIINYLNWYQQKPGKAPKLLIYHTSRLQSGVPSRFSGSGSGTDFTLTISSLQPEDFATYYCQQGYTLPYTFGQGTKVEIK

From patent US7179464
